Experimental findings from patent publication US20180155451A1 (published 2018) are described below.

The target in assay [1] is T1, FcγRIIIa extracellular domain with C-terminal His tag (human, UniProt P08637 17-208).
T1 construct: extracellular domain; also called FcgRIIIa; 3a; not shown: His tag at the C terminus
Description: SPR relative binding; GpH7-A5/GpH7-B3/GpL16-k0 = 100. The gist of the method:
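Biacore T100 at 25 °C in HBS-EP+. Antibodies were captured on antigen peptide, immobilised by amine coupling on CM5 or as biotinylated peptide on SA chips, and FcγRs injected as analyte. Chips were regenerated with 10 mM glycine-HCl pH 1.5. Binding was assessed from FcγR-binding activity and dissociation constant.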

In assay [2] the target is T2, FcγRIIa H (human, UniProt P12318 34-217).
T2 construct: extracellular domain; also called FcgRIIa H; FcγRIIa type H; not shown: His tag attached to the C terminus
T2 sequence (looked up): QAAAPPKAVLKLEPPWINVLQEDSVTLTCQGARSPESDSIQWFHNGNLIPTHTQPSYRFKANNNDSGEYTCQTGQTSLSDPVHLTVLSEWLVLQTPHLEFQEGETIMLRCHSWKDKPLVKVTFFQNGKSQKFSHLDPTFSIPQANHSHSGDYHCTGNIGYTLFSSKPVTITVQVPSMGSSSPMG
Description: SPR (Biacore), antibody captured, FcγR as analyte; binding relative to GpH7-A5/GpH7-B3/GpL16-k0 = 100.

Assay [3] deals with T3, FcγRIIb (human, UniProt P31994 43-217).
T3 construct: extracellular domain; also called FcgRIIb; 2b; not shown: His tag attached to the C terminus
T3 sequence (looked up): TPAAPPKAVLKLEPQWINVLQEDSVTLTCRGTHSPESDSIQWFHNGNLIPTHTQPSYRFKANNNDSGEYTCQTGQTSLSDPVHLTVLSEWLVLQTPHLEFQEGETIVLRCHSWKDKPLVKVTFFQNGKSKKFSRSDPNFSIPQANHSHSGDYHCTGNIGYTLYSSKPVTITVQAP
The description is as above.

T1 sequence (P08637 17-208): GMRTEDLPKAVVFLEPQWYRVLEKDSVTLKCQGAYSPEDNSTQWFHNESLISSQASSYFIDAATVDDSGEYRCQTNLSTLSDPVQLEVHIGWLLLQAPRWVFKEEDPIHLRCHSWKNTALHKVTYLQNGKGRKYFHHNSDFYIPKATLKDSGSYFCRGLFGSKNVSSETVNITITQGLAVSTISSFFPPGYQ

B1: GpH7-TA5/GpH7-B3/GpL16-k0 (antibody, human IgG1, kappa)
heavy 1: QVQLVQSGAEVKKPGASVTVSCKASGYTFTDYEMHWIRQPPGEGLEWIGAIDPKTGDTAYSESFQDRVTLTADKSTSTAYMELSSLTSEDTAVYYCTRFYSYTYWGQGTLVTVSSASTKGPSVFPLAPSSKSTSGGTAALGCLVKDYFPEPVTVSWNSGALTSGVHTFPAVLQSSGLYSLSSVVTVPSSSLGTQTYICNVNHKPSNTKVDKKVEPKSCDKTHTCPPCPAPEYLGGPSVFLFPPKPKDTLMISRTPEVTCVVVDVSHEDPEVKFNWYVDGVEVHNAKTKPREEQYNATYRVVSVLTVLHQDWLNGKEYKCKVSNKALPAPIEKTISKAKGQPREPQVYTLPPSRKELTKNQVSLTCLVKGFYPSDIAVEWESNGQPENNYKTTPPVLDSDGSFFLYSKLTVDKSRWQQGNVFSCSVMHEALHNRYTQKSLSLSP
heavy 2: not shown
light: DIVMTQSPLSLPVTPGEPASISCQASESLVHSNRNTYLHWYLQKPGQSPQLLIYKVSNRFSGVPDRFSGSGSGTDFTLKISRVEAEDVGVYYCSQNTHVPPTFGQGTKVEIERTVAAPSVFIFPPSDEQLKSGTASVVCLLNNFYPREAKVQWKVDNALQSGNSQESVTEQDSKDSTYSLSSTLTLSKADYEKHKVYACEVTHQGLSSPVTKSFNRGEC
notes: H1 L234Y and S298A
B1: in assay [1], the “FcγRIIIa BINDING ACTIVITY” value was 208 % of control.

B2: GpH7-TA6/GpH7-B3/GpL16-k0 (antibody, human IgG1, kappa)
heavy 1: QVQLVQSGAEVKKPGASVTVSCKASGYTFTDYEMHWIRQPPGEGLEWIGAIDPKTGDTAYSESFQDRVTLTADKSTSTAYMELSSLTSEDTAVYYCTRFYSYTYWGQGTLVTVSSASTKGPSVFPLAPSSKSTSGGTAALGCLVKDYFPEPVTVSWNSGALTSGVHTFPAVLQSSGLYSLSSVVTVPSSSLGTQTYICNVNHKPSNTKVDKKVEPKSCDKTHTCPPCPAPELLWGPSVFLFPPKPKDTLMISRTPEVTCVVVDVSHEDPEVKFNWYVDGVEVHNAKTKPREEQYNATYRVVSVLTVLHQDWLNGKEYKCKVSNKALPAPIEKTISKAKGQPREPQVYTLPPSRKELTKNQVSLTCLVKGFYPSDIAVEWESNGQPENNYKTTPPVLDSDGSFFLYSKLTVDKSRWQQGNVFSCSVMHEALHNRYTQKSLSLSP
heavy 2: not shown
light: DIVMTQSPLSLPVTPGEPASISCQASESLVHSNRNTYLHWYLQKPGQSPQLLIYKVSNRFSGVPDRFSGSGSGTDFTLKISRVEAEDVGVYYCSQNTHVPPTFGQGTKVEIERTVAAPSVFIFPPSDEQLKSGTASVVCLLNNFYPREAKVQWKVDNALQSGNSQESVTEQDSKDSTYSLSSTLTLSKADYEKHKVYACEVTHQGLSSPVTKSFNRGEC
notes: H1 G236W and S298A
On to B2, for which the “FcγRIIIa BINDING ACTIVITY” value in assay [1] was 228 % of control.

B3: GpH7-A5/GpH7-B3 variant D270_10E/GpL16-k0 (antibody, human IgG1, kappa)
heavy 1: not shown
heavy 2: not shown
light: DIVMTQSPLSLPVTPGEPASISCQASESLVHSNRNTYLHWYLQKPGQSPQLLIYKVSNRFSGVPDRFSGSGSGTDFTLKISRVEAEDVGVYYCSQNTHVPPTFGQGTKVEIERTVAAPSVFIFPPSDEQLKSGTASVVCLLNNFYPREAKVQWKVDNALQSGNSQESVTEQDSKDSTYSLSSTLTLSKADYEKHKVYACEVTHQGLSSPVTKSFNRGEC
notes: Heterodimerized IgG1, mutation in the GpH7-B3 chain only; also called He Ab
As to B3, the He/Con_2aH in assay [2] worked out at 102 control = 100. Besides, the He/Con_2b in assay [3] was 76.5 control = 100.

B4: GpH7-A5/GpH7-B3 variant A330_11K/GpL16-k0 (antibody, human IgG1, kappa)
heavy 1: not shown
heavy 2: not shown
light: DIVMTQSPLSLPVTPGEPASISCQASESLVHSNRNTYLHWYLQKPGQSPQLLIYKVSNRFSGVPDRFSGSGSGTDFTLKISRVEAEDVGVYYCSQNTHVPPTFGQGTKVEIERTVAAPSVFIFPPSDEQLKSGTASVVCLLNNFYPREAKVQWKVDNALQSGNSQESVTEQDSKDSTYSLSSTLTLSKADYEKHKVYACEVTHQGLSSPVTKSFNRGEC
notes: as for B3
As to B4, the He/Con_2aH in assay [2] is 109 control = 100. The He/Con_2b in assay [3] was determined as 95 control = 100.

B5: GpH7-A5/GpH7-B3 variant I332_03V/GpL16-k0 (antibody, human IgG1, kappa)
heavy 1: not shown
heavy 2: not shown
light: DIVMTQSPLSLPVTPGEPASISCQASESLVHSNRNTYLHWYLQKPGQSPQLLIYKVSNRFSGVPDRFSGSGSGTDFTLKISRVEAEDVGVYYCSQNTHVPPTFGQGTKVEIERTVAAPSVFIFPPSDEQLKSGTASVVCLLNNFYPREAKVQWKVDNALQSGNSQESVTEQDSKDSTYSLSSTLTLSKADYEKHKVYACEVTHQGLSSPVTKSFNRGEC
notes: as for B3
Molecule B5 displayed a He/Con_2aH in assay [2] of 105 control = 100. In assay [3], the He/Con_2b is 80.7 control = 100.

B6: GpH7-TA6/GpH7-B3-01-15Y/GpL16-k0 (antibody, human IgG1, kappa)
heavy 1: QVQLVQSGAEVKKPGASVTVSCKASGYTFTDYEMHWIRQPPGEGLEWIGAIDPKTGDTAYSESFQDRVTLTADKSTSTAYMELSSLTSEDTAVYYCTRFYSYTYWGQGTLVTVSSASTKGPSVFPLAPSSKSTSGGTAALGCLVKDYFPEPVTVSWNSGALTSGVHTFPAVLQSSGLYSLSSVVTVPSSSLGTQTYICNVNHKPSNTKVDKKVEPKSCDKTHTCPPCPAPELLWGPSVFLFPPKPKDTLMISRTPEVTCVVVDVSHEDPEVKFNWYVDGVEVHNAKTKPREEQYNATYRVVSVLTVLHQDWLNGKEYKCKVSNKALPAPIEKTISKAKGQPREPQVYTLPPSRKELTKNQVSLTCLVKGFYPSDIAVEWESNGQPENNYKTTPPVLDSDGSFFLYSKLTVDKSRWQQGNVFSCSVMHEALHNRYTQKSLSLSP
heavy 2: not shown
light: DIVMTQSPLSLPVTPGEPASISCQASESLVHSNRNTYLHWYLQKPGQSPQLLIYKVSNRFSGVPDRFSGSGSGTDFTLKISRVEAEDVGVYYCSQNTHVPPTFGQGTKVEIERTVAAPSVFIFPPSDEQLKSGTASVVCLLNNFYPREAKVQWKVDNALQSGNSQESVTEQDSKDSTYSLSSTLTLSKADYEKHKVYACEVTHQGLSSPVTKSFNRGEC
notes: H1 G236W and S298A; H2 L234Y
Regarding B6, the “FcγRIIIa BINDING ACTIVITY” value in assay [1] is 103 % of control.

B7: GpH7-A5/GpH7-B3 variant I332_13S/GpL16-k0 (antibody, human IgG1, kappa)
heavy 1: not shown
heavy 2: not shown
light: DIVMTQSPLSLPVTPGEPASISCQASESLVHSNRNTYLHWYLQKPGQSPQLLIYKVSNRFSGVPDRFSGSGSGTDFTLKISRVEAEDVGVYYCSQNTHVPPTFGQGTKVEIERTVAAPSVFIFPPSDEQLKSGTASVVCLLNNFYPREAKVQWKVDNALQSGNSQESVTEQDSKDSTYSLSSTLTLSKADYEKHKVYACEVTHQGLSSPVTKSFNRGEC
notes: as for B3
Molecule B7 displayed a He/Con_2aH in assay [2] of 110 control = 100. The same molecule registered a He/Con_2b in assay [3] of 98.4 control = 100.

B8: GpH7-A5/GpH7-B3 variant A330_12R/GpL16-k0 (antibody, human IgG1, kappa)
heavy 1: not shown
heavy 2: not shown
light: DIVMTQSPLSLPVTPGEPASISCQASESLVHSNRNTYLHWYLQKPGQSPQLLIYKVSNRFSGVPDRFSGSGSGTDFTLKISRVEAEDVGVYYCSQNTHVPPTFGQGTKVEIERTVAAPSVFIFPPSDEQLKSGTASVVCLLNNFYPREAKVQWKVDNALQSGNSQESVTEQDSKDSTYSLSSTLTLSKADYEKHKVYACEVTHQGLSSPVTKSFNRGEC
notes: as for B3
In the case of B8, the He/Con_2aH in assay [2] worked out at 108 control = 100. In addition, the He/Con_2b in assay [3] is 84.8 control = 100.

B9: GpH7-A5/GpH7-B3 variant A330_16H/GpL16-k0 (antibody, human IgG1, kappa)
heavy 1: not shown
heavy 2: not shown
light: DIVMTQSPLSLPVTPGEPASISCQASESLVHSNRNTYLHWYLQKPGQSPQLLIYKVSNRFSGVPDRFSGSGSGTDFTLKISRVEAEDVGVYYCSQNTHVPPTFGQGTKVEIERTVAAPSVFIFPPSDEQLKSGTASVVCLLNNFYPREAKVQWKVDNALQSGNSQESVTEQDSKDSTYSLSSTLTLSKADYEKHKVYACEVTHQGLSSPVTKSFNRGEC
notes: as for B3
In turn, B9 returned a He/Con_2aH in assay [2] of 101 control = 100. In assay [3], the He/Con_2b came out at 87.6 control = 100.

B10: GpH7-A5/GpH7-B3 variant A330_19Q/GpL16-k0 (antibody, human IgG1, kappa)
heavy 1: not shown
heavy 2: not shown
light: DIVMTQSPLSLPVTPGEPASISCQASESLVHSNRNTYLHWYLQKPGQSPQLLIYKVSNRFSGVPDRFSGSGSGTDFTLKISRVEAEDVGVYYCSQNTHVPPTFGQGTKVEIERTVAAPSVFIFPPSDEQLKSGTASVVCLLNNFYPREAKVQWKVDNALQSGNSQESVTEQDSKDSTYSLSSTLTLSKADYEKHKVYACEVTHQGLSSPVTKSFNRGEC
notes: as for B3
In assay [2], B10 returned a He/Con_2aH of 102 control = 100. Moreover, the He/Con_2b in assay [3] stood at 90.8 control = 100.

B11: GpH7-A5/GpH7-B3 variant H268_04F/GpL16-k0 (antibody, human IgG1, kappa)
heavy 1: not shown
heavy 2: not shown
light: DIVMTQSPLSLPVTPGEPASISCQASESLVHSNRNTYLHWYLQKPGQSPQLLIYKVSNRFSGVPDRFSGSGSGTDFTLKISRVEAEDVGVYYCSQNTHVPPTFGQGTKVEIERTVAAPSVFIFPPSDEQLKSGTASVVCLLNNFYPREAKVQWKVDNALQSGNSQESVTEQDSKDSTYSLSSTLTLSKADYEKHKVYACEVTHQGLSSPVTKSFNRGEC
notes: as for B3
In turn, B11 came in with a He/Con_2aH in assay [2] of 111 control = 100. This molecule also gave a He/Con_2b in assay [3] of 89.6 control = 100.

B12: GpH7-TA7/GpH7-B3/GpL16-k0 (antibody, human IgG1, kappa)
heavy 1: QVQLVQSGAEVKKPGASVTVSCKASGYTFTDYEMHWIRQPPGEGLEWIGAIDPKTGDTAYSESFQDRVTLTADKSTSTAYMELSSLTSEDTAVYYCTRFYSYTYWGQGTLVTVSSASTKGPSVFPLAPSSKSTSGGTAALGCLVKDYFPEPVTVSWNSGALTSGVHTFPAVLQSSGLYSLSSVVTVPSSSLGTQTYICNVNHKPSNTKVDKKVEPKSCDKTHTCPPCPAPEYLWGPSVFLFPPKPKDTLMISRTPEVTCVVVDVSHEDPEVKFNWYVDGVEVHNAKTKPREEQYNATYRVVSVLTVLHQDWLNGKEYKCKVSNKALPAPIEKTISKAKGQPREPQVYTLPPSRKELTKNQVSLTCLVKGFYPSDIAVEWESNGQPENNYKTTPPVLDSDGSFFLYSKLTVDKSRWQQGNVFSCSVMHEALHNRYTQKSLSLSP
heavy 2: not shown
light: DIVMTQSPLSLPVTPGEPASISCQASESLVHSNRNTYLHWYLQKPGQSPQLLIYKVSNRFSGVPDRFSGSGSGTDFTLKISRVEAEDVGVYYCSQNTHVPPTFGQGTKVEIERTVAAPSVFIFPPSDEQLKSGTASVVCLLNNFYPREAKVQWKVDNALQSGNSQESVTEQDSKDSTYSLSSTLTLSKADYEKHKVYACEVTHQGLSSPVTKSFNRGEC
notes: H1 L234Y, G236W and S298A
With B12, the “FcγRIIIa BINDING ACTIVITY” value in assay [1] is 201 % of control.
